# Source: US20210009693A1 (MABSPACE BIOSCIENCES SUZHOU, published 2021)
# B1: 23F11-H4L4 (antibody, V domains shown)
# VH: QVQLVQSGAEVKKPGASVKLSCKASGYIFTTYWMHWVKQRPGQGLEWIGMIQPNSGGTKYNEKFKKKATLTVDKSISTAYMELSRLTSDDTAVYYCARGAGTVDYFDYWGQGSTLTVSS
# VL: DIVLTQSPASLAVSVGQRATITCRASESVDIYGNSFMHWYQQKPGQPPKLLIYRASNLESGIPARFSGSGSRTDFTLTINPVEANDTATYYCQQSTEDPYTFGGGTKLEIK
# notes: Human IgG1 constant region with N297A; biotinylated in the alanine-scan ELISA; also called 23F11-H4L4-bio; humanized 23F11
# B2: 21F11 (antibody, V domains shown)
# VH: QVQLQQPGAELVKPGASVKLSCKASGYTFTSNWMHWVKQRPGQGLEWIGMMHPNSGSINYNEKFKNKATLTADKSSSTAYMQLSSLTSEDSAVYYCARSYYGSSPYYFDYWGQGTTLTVSS
# VL: DIQMTQTTSSLSASLGDRVTISCRASQDISNYLNWYQQKPDGTVKLLIYYTSRLHSGVPSRFSGSGSGTDFSLTISNLEEEDIATYFCQQGDTLPWTFGGGTKLEIK
# notes: Mouse monoclonal from hybridoma; also called mouse monoclonal antibody 21F11
# Assays:
# [1] = molecular target: T1, Recombinant Human PD-L1/CD274 Protein (hPD-L1-his) (human, UniProt Q9NZQ7 19-238); test: ELISA on coated hPD-L1-his
# T1 construct: range 19-238; ACRO Biosystem PD1-H5229, made in HEK293; also called human PD-L1-his; hPD-L-his
# T1 sequence (Q9NZQ7 other isoform, or with tags, fused parts or gaps limits assumed): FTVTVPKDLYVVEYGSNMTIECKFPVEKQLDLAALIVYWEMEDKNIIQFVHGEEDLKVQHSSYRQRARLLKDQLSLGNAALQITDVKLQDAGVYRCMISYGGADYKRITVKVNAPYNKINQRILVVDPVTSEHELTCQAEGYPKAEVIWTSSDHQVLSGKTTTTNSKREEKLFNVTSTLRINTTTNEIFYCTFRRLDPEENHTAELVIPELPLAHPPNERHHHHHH
# [2] = molecular target: T2, wild type human PD-L1-Fc protein (SEQ ID NO: 107) (human); test: ELISA on captured PD-L1-Fc, as in Example 18A
# T2 construct: Extracellular human PD-L1 (amino acid 19-238) with Fc fragment of human IgG1, expressed in 293T cells and used as culture supernatant; also called WT PD-L1; wild-type PD-L1
# T2 sequence (chain, as listed by the source limits assumed): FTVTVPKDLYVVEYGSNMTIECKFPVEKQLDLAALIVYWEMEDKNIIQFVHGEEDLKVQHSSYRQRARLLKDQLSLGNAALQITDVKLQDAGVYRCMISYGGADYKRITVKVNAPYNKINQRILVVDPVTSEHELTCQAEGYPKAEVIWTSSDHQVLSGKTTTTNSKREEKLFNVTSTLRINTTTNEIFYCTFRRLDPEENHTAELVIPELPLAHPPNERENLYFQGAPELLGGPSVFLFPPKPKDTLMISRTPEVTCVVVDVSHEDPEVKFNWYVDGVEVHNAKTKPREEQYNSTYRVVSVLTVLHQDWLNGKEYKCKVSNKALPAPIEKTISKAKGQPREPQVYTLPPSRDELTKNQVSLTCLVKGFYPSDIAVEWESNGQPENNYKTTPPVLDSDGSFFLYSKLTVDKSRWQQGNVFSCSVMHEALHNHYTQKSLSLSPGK
# [3] = molecular target: T3, human PD-L1-Fc mutant E58A (human); test: ELISA on captured PD-L1-Fc, as in Example 18A
# T3 construct: Position 58 counts on native human PD-L1 (NP_054862.1); also called E58A mutant
# T3 sequence (chain, as listed by the source E58A E58A limits assumed): as the sequence (chain, as listed by the source limits assumed) above, with E40A counted along it
# [4] = molecular target: hPD-L1 (antigen of the Biacore assay) (human, UniProt Q9NZQ7 19-238, limits assumed); test: SPR (Biacore), antibody captured on anti-human Fc, antigen in flow
# Chain of hPD-L1 (antigen of the Biacore assay) (Q9NZQ7 19-238 limits assumed): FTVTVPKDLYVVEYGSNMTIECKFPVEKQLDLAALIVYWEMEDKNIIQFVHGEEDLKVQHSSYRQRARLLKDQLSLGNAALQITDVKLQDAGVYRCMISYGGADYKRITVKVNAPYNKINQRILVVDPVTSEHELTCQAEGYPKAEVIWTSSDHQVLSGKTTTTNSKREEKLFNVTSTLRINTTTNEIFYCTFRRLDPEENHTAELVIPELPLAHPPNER
# Method in brief: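 Antibody captured to 200–300 RU on an anti-human Fc CM5 surface, with an uncaptured flow cell as reference; antigen injected at varying concentrations, 180 s association, in HBS-EP pH 7.4. Regeneration with glycine pH 1.5 for 120 s; reference-subtracted signals evaluated.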
# [5] = molecular target: T1, Recombinant Human PD-L1/CD274 Protein …; test: ELISA, coated hPD-L1-his, acidic wash and incubation after binding at pH7.4
# Experimental: (§1) The pH-dependent binding affinity was further measured at various pH values, such as pH4, pH4.5, pH5.0, pH5.5, pH6.0, pH7.4. The measurement by ELISA was conducted similarly to the method described above. High-binding clear polystyrene 96 well plates were coated with 100 μl/well of a 0.5 μg/ml hPD-L1-his in high pH coating buffer and incubated overnight at 4° C. Then the coated plates were washed 3 times with shaking for 10s on an automatic plate washer with PBS+0.1% Tween 20 (Amresco). Then 200 μl of blocking buffer (1% BSA (Solarbio)+1% normal goat serum (Solarbio)+0.05% Tween 20 (Amresco)) was added to each well and the plates were then incubated for 2 hours at room temperature and washed 3 times as above. […] The plates were then washed once with 250 μl/well washing buffer at pH7.4, pH6.0, pH5.5, pH5.0, pH4.5 or pH4.0 and then 100 μl/well pH7.4 or pH5.5 washing buffer was added and the incubation was continued for 2 hours at RT with shaking. Afterwards, the plates was washed 3 times washing buffer at pH7.4 and 100 μl/well of a solution of HRP conjugated goat anti-hIgG HRP antibody (1:20000, Abcam) in pH7.4 dilution buffer was then added to each well of the plate. After that the plates were allowed to incubate for 60 min at room temperature followed by washing 3 times with 250 μl/well pH7.4 washing buffer. Finally, 100 μl/well of TMB was added to each well for 15 min and the reaction was terminated using 50 μl/well of 0.16M/L sulfuric acid. The plates were read on a Thermo Multiscan FC at 450 nm (see FIG. 23A-23F). The measurements were performed in triplicate.
# [6] = molecular target: T1, Recombinant Human PD-L1/CD274 Protein …; test: ELISA on coated hPD-L1-his; bound at pH7.4, then 2 h at pH7.4
# Experimental: as §1
# [7] = molecular target: T1, Recombinant Human PD-L1/CD274 Protein …; test: ELISA on coated hPD-L1-his; bound at pH7.4, then 2 h at pH5.5
# Experimental: as §1, with “Finally, 100 μl/well of TMB was added to each well for 15 min and the reaction was terminated using 50 μl/well of 0.16M/L sulfuric acid.” left out, “The measurements were performed in triplicate.” left out
# [8] = molecular target: T4, human PD-L1 expressed on cells (human, UniProt Q9NZQ7 19-290); test: blocking FACS on HCC827 cells; blocked ligand: biotinylated hPD-1-N297A
# T4 construct: whole, on cells; also called hPD-L1 expressed on HCC827; hPD-L1 on MC38/hPD-L1 cells
# T4 sequence (Q9NZQ7 19-290): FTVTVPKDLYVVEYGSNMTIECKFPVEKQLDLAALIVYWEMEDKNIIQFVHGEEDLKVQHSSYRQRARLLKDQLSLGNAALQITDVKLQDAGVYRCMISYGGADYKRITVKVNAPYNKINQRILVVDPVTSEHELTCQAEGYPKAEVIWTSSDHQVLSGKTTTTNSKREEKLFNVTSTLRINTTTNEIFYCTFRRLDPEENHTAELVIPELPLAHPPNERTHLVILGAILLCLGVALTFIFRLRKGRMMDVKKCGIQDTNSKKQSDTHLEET
# Experimental: Log phase IFN-γ stimulated (500U/ml for 2 days) HCC827 cells were collected and resuspended in blocking buffer (5% BSA+PBS). 2×10\hat{ }5 cells were added to each tube and then washed once with PBS (1500 rpm, 5 mins, RT). […] After washing for three times with PBS, 100 μl/tube streptavidin-PE 1:200 in blocking buffer was added to each tube. The cells were incubated at 4° C. for 1 hr and then washed twice with PBS, followed by resuspending cells in 150 μl PBS for each sample. The cells were then transferred into FACS tube and the binding of the antibodies to the cells were detected with flow cytometry (ACEA Bioscience Novocyte) (see FIGS. 20A and 20B).
# [9] = molecular target: T5, Human PD-L1/CD274 with C-Fc Tag (hPD-L1-Fc) (human, UniProt Q9NZQ7 19-238); test: blocking ELISA on coated hPD-L1-Fc; blocked ligand: biotinylated hPD-1-N297A
# T5 construct: range 19-238; ACRO Biosystem PD1-H5258, made in HEK293; also called human PD-L1-Fc; not shown: Fc fragment of human IgG1 at C-terminus
# T5 sequence (Q9NZQ7 19-238 limits assumed): as the sequence (Q9NZQ7 19-238 limits assumed) above
# [10] = molecular target: T4, human PD-L1 expressed on cells; test: flow cytometry (relative mean fluorescence) on human peripheral blood cells activated 3 days with anti-CD3 and anti-CD28; detection with anti-human IgG-APC
# [11] = molecular target: T2, wild type human PD-L1-Fc protein (SEQ …); test: ELISA on hPD-L1-Fc captured from 293T supernatant, 0.5 ug/ml antibody
# [12] = molecular target: T5, Human PD-L1/CD274 with C-Fc Tag …; test: blocking ELISA on coated hPD-L1-Fc; blocked ligand: biotinylated hPD-1-Fc-N297A
# Experimental: High-binding clear polystyrene 96 well plates (Nunc) were coated with 100 μl/well of coating solution consisting of 0.5 μg/ml hPD-L1-Fc overnight at 4° C. Then washed once on an automatic plate washer using washing buffer PBS+0.1% Tween 20 (Sigma). 200 μl of blocking buffer (PBS+1% BSA+1% normal goat serum+0.05% Tween-20) was added to each well and incubated for 2 hours at room temperature. Then add serial diluted antibodies (from 10 μg/ml to 0.0006 μg/ml) with dilution buffer (PBS+1% BSA+1% normal goat serum+0.01% Tween-20) and incubate for 1 hour at RT. The plates were then washed 3 times using the method described above. […] After the plates were washed 3 times, 100 μl/well of a solution of HRP conjugated Neutravidin antibody (Pierce) diluted in dilution buffer was then added to each well of the plate. After that the ELISA plates were allowed to incubate for 60 min at RT then plates were washed 3 times with 250 μl/well washing buffer. Finally, 100 μl/well of TMB was added to each well and reaction was terminated using 0.64M H₂SO₄. The plates were read on a Thermo Multiscan FC at 450 nM (see FIG. 4A).
# [13] = molecular target: T6, Recombinant Mouse PD-L1/CD274 Protein (mPD-L1-his) (mouse, UniProt Q9EP73 19-238); test: ELISA, 20 ug/ml antibody on coated mouse PD-L1 (his-tagged per text, mPD-L1-Fc per sheet title)
# T6 construct: range 19-238; ACRO Biosystem PD1-M5220; also called mouse PD-L1-his
# T6 sequence (Q9EP73 other isoform, or with tags, fused parts or gaps limits assumed): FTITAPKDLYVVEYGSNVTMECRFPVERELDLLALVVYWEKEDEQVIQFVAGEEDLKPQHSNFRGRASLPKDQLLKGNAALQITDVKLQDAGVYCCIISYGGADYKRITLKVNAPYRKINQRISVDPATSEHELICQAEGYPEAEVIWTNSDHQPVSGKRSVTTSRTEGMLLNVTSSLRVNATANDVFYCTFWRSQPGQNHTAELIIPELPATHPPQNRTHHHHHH
# Method in brief: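 Wells coated overnight at 4 °C with 1 μg/ml mouse PD-L1-his, blocked 2 h with BSA/goat serum buffer; purified hybridoma mouse antibodies at 20 μg/ml bound 1 h at RT. Detection by HRP goat anti-mouse Fc (60 min, RT), TMB, acid stop, absorbance at 450 nm.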
binder,measurement,setting,value
B1,EC50 (read off the curve),[1],~0.001 µg/mL
same,Mean OD450,[2],1.25 OD450
same,OD450 nM of sample-1,[2],1.18 OD450
same,OD450 nM of sample-2,[2],1.33 OD450
same,% of binding of Ab to E58A mutant vs. that to WT PD-L1,[3],9.2%
same,Mean OD450,[3],0.116 OD450
same,OD450 nM of sample-1,[3],0.129 OD450
same,OD450 nM of sample-2,[3],0.103 OD450
same,Kd,[4],65.4 nM
same,koff,[4],0.0304 s⁻¹
same,kon,[4],465000 M⁻¹ s⁻¹
same,binding signal at pH5 as percent of the signal at pH7.4,[5],< 50%
same,binding signal at pH5.5 as percent of the signal at pH7.4,[5],< 75%
same,EC50 (read off the curve),[6],~0.007 µg/mL
same,EC50 (read off the curve),[7],~0.01 µg/mL
same,IC50 (read off the curve),[8],~0.03 µg/mL
same,IC50 (read off the curve),[9],~0.03 µg/mL
same,EC50,[10],0.0305 µg/mL
B2,binding result,[11],binds
same,IC50 (read off the curve),[12],~0.2 µg/mL
same,binding result,[13],no binding (tested: 20 ug/ml)
